The target in this assay is T1, Fc-NKG2D.Y152A (human).
T1 construct: also called NKG2D.YA; Fc-NKG2D.YA
The assay can be described thus: ELISA and Octet.

T1 sequence (chain, as listed by the source Y152A Y152A limits assumed): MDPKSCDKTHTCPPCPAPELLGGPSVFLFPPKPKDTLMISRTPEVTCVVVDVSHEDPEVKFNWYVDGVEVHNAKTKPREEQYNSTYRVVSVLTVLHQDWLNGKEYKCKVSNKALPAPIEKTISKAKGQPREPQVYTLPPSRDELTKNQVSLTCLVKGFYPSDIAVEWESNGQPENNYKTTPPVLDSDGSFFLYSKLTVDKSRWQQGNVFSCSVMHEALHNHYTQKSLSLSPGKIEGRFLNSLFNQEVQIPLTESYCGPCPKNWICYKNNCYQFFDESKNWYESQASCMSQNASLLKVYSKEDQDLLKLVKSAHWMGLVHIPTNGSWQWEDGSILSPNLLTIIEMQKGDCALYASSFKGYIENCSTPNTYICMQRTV

B1: rituximab-ULBP2.S3 MicAbody (bispecific antibody, human IgG1, kappa)
heavy: not shown
light: QIVLSQSPAILSASPGEKVTMTCRASSSVSYIHWFQQKPGSSPKPWIYATSNLASGVPVRFSGSGSGTSYSLTISRVEAEDAATYYCQQWTSNPPTFGGGTKLEIKRTVAAPSVFIFPPSDEQLKSGTASVVCLLNNFYPREAKVQWKVDNALQSGNSQESVTEQDSKDSTYSLSSTLTLSKADYEKHKVYACEVTHQGLSSPVTKSFNRGECAPTSSSGGGGSEPHSLSYDITVIPKFRPGPRWCAVQGQVDEKTFLHYDCGNKTVTPVSPLGKKLNVTTAWKAQNPVLREVVDILTEQLWDIQLENYTPKEPLTLQARMSCEQKAEGHSSGSWQFSFDGQIFLLFDSEKRMWTTVHPGARKMKEKWENDKVVATKLYLWSMGDCIGWLEDFLMGMDSTLEPS
notes: also called ULPB2.S3; U2S3 MicAbody
In the case of B1, the binding result is given as “binds”.
